# Test: yeast display, Sf9 membrane polyspecificity reagent, FACS + sequencing; frameworks hold sequencing errors
# How it was run: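 Galactose induction of a Saccharomyces cerevisiae BJ5465 synthetic nanobody display library ran 36–48 hours. The cells were then stained for 1 hour at 4 °C with 10% biotinylated, detergent-solubilized Sf9 membrane reagent, pulled down on streptavidin microbeads and FACS-sorted into low and high (top ~1%) gates on expression and reagent-binding fluorescence. Labels for polyreactivity follow the gate of origin.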
row,Sequence,polyreactivity (PSR sort gate)
1,QVQLVESGGGLVQAGGSLRLSCAASGLTFSLYAMGWYGQAPGKEREFVAAISSSGGSTYYADSVKGRFTISRDNAKNTVYLQMNSLKPEDTAVYYCNVRRKSRMGYWGQGTQVTVSS,high polyreactivity
2,QVHLVESGGGLVKAGGSLRLSCAASGLTFYVYTMGWYRQAPGKERELVAVISSGDSTYYADSVKGRFTISRDNAKNTVYLQMNSLKPEDTAVYYCAAGTHYLIVRYGLYDYWGQGTQVYVSS,low polyreactivity
3,QVQLVESGGGLVQAGGSLRLSCAASGYTFYVYTMGWYRQAPGKERELVAAISGSGTSTYYADSVKGRFTISRDNAKNTVYLQMNSLKPEDTAVYYCAAEDYSSDVYSYDYWGQGTQVTVSS,low polyreactivity
4,QVQLVESGGGLVQAGGSIRLSCAASVSIQTRNAMGWYRQAPGKERELVAAISRGGSTTYADSVKGRFTISRDNAKNTVYLQMNSLKPEDTAVYYCAASDYYVLSRRTRMDYWGQGTQVTVAS,high polyreactivity
5,QVQLVESGGGLVQAGGSLRLSCAASGSTFIGHAMGWYRQAPGIERELVATITSGDSTYADSVKGRFTISRDNAKNTVYLQMNSLKPEDTAVYYCNADPWDIGSSFELDYWGQGTQLTVSS,low polyreactivity
6,QVQLVESGGGLVQAGGSLRLSCAASGFTININDMRGYRQAPGIDTDLVAALSWNVGNRYYADSVKGRFTISRDNAKNTVYLQMKSLKPEDTAVYYCAADRYIRWVEFDYWGQGTQVTVSS,low polyreactivity
7,QVQLVESGGGLVQAGGSLRISCADSGSIFSLYAMGWYRPAAGKERELVAAIRRGGSTYYADSVKGRFTISRDNAKNTVYLQMNSLIPEDTAVYYCAADAYSGYSDYYWGQGTHVTVSS,low polyreactivity
8,QVQLVESGGGLVQAGGSLRLSCAASGLTLGSYAMGWYRQAPGKERELVAAISRRSGRTYYADSVKGRFTISRDNAKNTVYLQMNSLKPEDTAVYYCAAEIPYYVDTPGDDYWGQGTQVTVSS,low polyreactivity
9,QVQLVESGRGLVQAGGSLRLSCAASGRTVTNNVLGWYRQAPGKEREFVASISSGGGSTYYADSVKGRFTISRDNANNTVYVQMNSLKPEDTAVYYCAAGYWWRYALYGYWGQGTQVTVSS,low polyreactivity
10,QVQLVESGGGLVQAGGSLRLTCAASGSIFSYNVMGWYRQAPGKERELVAVITGSGGSTYYADSVKGRFTISRDNAKNTVYLQMYSLKPEDTAVYYCAATYSGWQWYETYYYWGQGTQVTVSS,low polyreactivity
11,QVQIVESGGGLVQAGGSLRLSCAASGRIFVRNAMGWYRQAPAKERELVADITNGGSTNYADSVKGRFTISRDNEKNTVYLQMNSLKPEDTAVYYCAADSLGVYDGDYWGQGTQVTVSS,low polyreactivity
12,QVQLVESGGRLVQAGGSLRLICAASGSICTHNAMGWYRQAPGKERELVADITSSVSSTYYADSVKGRFTISRDNSKNTVDLQMNSLKPEDTSVYYCAGGVGRGMYYWGQGTQVTVSS,low polyreactivity
13,QLQLVESGGGLVQAGGSLRLSCAASGRIFIYNAMGWYRQAPGKERELVAAINRSGVSTHYADSVKGRFTISRDNAKNTVYLQMNSLKPEDTAVYYCARTVYGARSFDYWGQGTQVTVSS,low polyreactivity
14,QVQLVESVGGLVQAGGSLRLSCAASGRTLSYYAMGRYRQAPGKVRELVAAISRRGGSTYYADSVKGRFTISRDKAKNTVYLQMNCLQSKDTAFYYCAATVGNAADYDYGYWGQGTQVTVSS,high polyreactivity
15,QVQLLESGGGLVQAGGSLRLSCAASGGIFPAYAMGWYRQAPGKERELFADITNGGSTYYADSVKGRFTISRDNAKNTVYLQMNSLKPEDTAVYYCNAREFWRTRFGCGYPYRRNMDYWGQGTQVTVSS,low polyreactivity
16,QVQLVESGGGLVQAGGSLRLSCAASGRTFSYNAMGWYRQAPGKERELVAAINWRAGRTYYADSVKGRFTISRDNAKNTVYLQMNSLKPEDTAVYYCNARSGRGQAYGYWGQGTQVTVSS,high polyreactivity
17,QVQLVESGGGLVQAGGSLRLSCAASGSTFNRNTMGWYRQAPGKERELVAAITSSGGRTYYADSVKGRFTISRDNAKNTVFLQVNSLKPEDTAVYYCATVNRVLIAGRFDSWGQGTQVTVSS,high polyreactivity
18,QVQLVESGGGLVQAGGSLRLSCAASGYIFVGNAMGWYRQAPGKERELVATIRSSTGNTYADSVKGRFTISRDNAKNTVYLQMNSLKPEDTAVYYCATVYELPGWGREYGYWGQGTQVTVSS,low polyreactivity
19,QVQLVESGGGLVQAGGSLRLSCAASGRIIYTYALGWYRQAPGKERELVAAISWSGGSTYYADSVKGRFTISRDNAKNTVYLQMNSLKREDTAVYYCNAAYYGYENLSKRGYWGQGTQVTVSS,high polyreactivity
20,QVQLVESGGGLVQAGGSLRLSCAASGRTFSVNDMGWYRQAPWKEREFVAAISFSGGSTYYADSVKGRFTISRDNAKNTVYLLMNSLKPEDSAVYYSAAEAYPSWFYVITGFGIYDYWGQGTQVTGSS,high polyreactivity
21,QVQLVESGGGLVQAGGSLRLSCAASGYICVRYAMGWYRQAPGKEREFVAAISSSGGSTRYADSVKGRFTISRDNAKNTVYLQMNSLKPEDTAVYYCAATRVARHGSPMYYWGQGTQVTVSS,high polyreactivity
22,QVQLVESGGGLVQAGGSLRLSCAASGSIFYTYAMGWYRQAPGKERELVAAISRSGGSTYYADSVKGRFTISRDNAKNTVYVQMNSLKPEETAVYYCAAVSYRGRGYWGQGTQVTVSS,high polyreactivity

row,Sequence,polyreactivity (PSR sort gate)
1,QDQLVESGGGLVQAGGSLRLSCAASGRTFPRNGMGWYRQAPGKERELVAAISWSGGRTYYADSVKGRFTISRDNAKNTVYLQMNSLKPEDTAVYYCNALYFRKGGYWGQGTQVTVSS,high polyreactivity
2,QVQLQESGGGLVQAGGSPRLSCAASDNIFPDSVMCWSRQAPGKERELVATIGFGATTNYADSVKGRFTISRDNAKNTVYLQMNSLKPEDTAVYYCAADPLNYEYFCYWGQGTQVTVSS,low polyreactivity
3,QVQLVESGGGLVQAGGSLRLSCAASGIIFWTYTMGWYRQAPGKERELVAAISSGGSTNYADSVKGRFTISRDNAKNTVYLQMNSLKPEDTAVYYCAKRRQYQRSYNYWGQGTQVTVSS,low polyreactivity
4,QVQLVESAAGLVQAVGSLRLSCAPSGITFYDYTMGWYRQAPGKERELVAAITSSGVSTYYADSVKGRFTISRDNAKNTVYLQMNSLKPEDTAVYYCATDAWSVYSYLAFTYDYWGQGTQVTVSS,low polyreactivity
5,QVQLVESGGGLVQAGGSLSLICAASGRFSNAMGWYIQAPGKERELVAAITLSGTSTYYADSVKGRFTISRDNAKNTVYLQMNSLKTEDTAVYYCAAGSGYGVTWVYSPYTGVDYWGQGTQVTVSS,low polyreactivity
6,QVQLVESGGGLVQAGGSLRLSCAASGSIFLGNAMGWYRQAPGKERELVAAITWSGGSTTYADSVKGRFTISRDNAKNTVYLQMNSLKREDTAVYYCNASIYQRYDYWGQGTQVTVSS,low polyreactivity
7,QVQLVESVGGLVQAGGSLRLSCASSGLIFPIYTMGWYRQAPGKERELVAASSSRGGSTYYADSVKGRFTISRDNAKNSVYLQMNCLKPEDTAVYDFGSYDYSGQGTQVTVSS,high polyreactivity
8,QVQLVESGGGLVQAGGSLRLTCAASGSTFYIYAMGWYRQAPGKERELVARISGSGGSTYYADSVKGRFTISRDNAKNTVYLQMNSLKPEDTAVYYCAADDIYKYYQYYAFPYYRYDYWGQGTQVTVSS,low polyreactivity
9,QVHLVESGGGLVQAGGSLRLSCAASGRTFPGYAMGWYRQAPGKERELVATITGNAGSTYYADSVKGRFTISRDNAKNTVYLQMNSLKPEDTAVYYCAAGRRRPYVRAYRGTDYWGQGTQVTVSS,low polyreactivity
10,QVQLVESGGGLVQAGGSLRLSCAASGFTFYRNAMGWSRQAPGKERELVARIRGTGGRTYYADSVKGRFTISRDNAKNTVYLQMNSLKPEDSAVYYCARRYHYSLYGYWGQGTQVTVSS,high polyreactivity
11,QVQLVESGGGLVQAGGSLRLSCAASGSIFSTNAMGWYRQAPGKERELVAAITYSGSLTYYADSVKGRFTISRDNAKNTVYLQMNSLKPEDTAVYYCAADTSWYSWWFDYWGQGTQVTVSS,low polyreactivity
12,QVQLVESGGGLVQAGGSLRLSCAASGITFAYYAKGWYRQAPGKEREFVAAINGGGSTNYADSVKGRFSISRDNAKNTVYLQMNSLKAEDTAVYFCNARRAYRAWYYPYDYWGQGTQVTVSS,high polyreactivity
13,QVQLVESGGGLVQAGGSLRLSCAASGSTFSGYAMGWSRQAPGKERELVASITSSGGSTYYADSVKGRFTISRDNAKNTVYLQMNSLKPEDTAVYYCAAAKSAMWGQGTQVTVSS,low polyreactivity
14,QVQLVESGGGLVQAGGSLRLSCAASGSISIFYMGWYRQAPGKERELVAAISWSGGRTYYADSVKGRFTISRDNAKNTVYLQMNSLKREDTAVYYCAASRSFPGYGLYYYWGQGTQVTVSS,low polyreactivity
15,QVQLVESGGGLVQAGGSLRLSCAASGRIFIANTMGWYRQAPGKERELVAAITQRGDSTYYADSVKGRFTISRDNAKNTVYLQMNSLKPVDTAVYYCAARSFRKYYIRYDYWGQGTQVTVSS,high polyreactivity
16,QVQLVESGGGLVQAGGSLRLSCDASGSTFYVYAMGWYRQAPGKERELVASINSSTSTNYADSVKGRFTISRDNAKNTVYLQMNSLKPEDTAVYYCAADSRVPEYRSPKNDYWGQGTQVTVSS,low polyreactivity
17,QVQLVESGGGLVQAGGSLRLSCAASGRTFENNAMGWYRQAPGKERELVATIRYSGTSTYADSVKGRFTISRDNAKNTVYLQMNSLKPEDTAVYYCAKQVRYYGYKYNYWGQGTQVTVSS,high polyreactivity
18,QVQLVESGGGLVQAGGSLRLSCAASGRIFTFNAMGWYRQAPGKERELVAAGSTYYADSVKGRFTISRDNAKNTVYLQMNSLKPEDTAVYYCAVEDLGSEGWGWYKEMDYWGQGTQVTVSS,low polyreactivity
19,QVQLVESGGGLVQAGGSLRLSCAASGSTLQINGMGWYRQAPGKERELVAAISIGSDTNYADSVKGRFTISRDNAKNTEMNSLKPEDTAVYYCAAQRRYHQDTTIGPGNYYYWGQGTQVTVSS,low polyreactivity
20,QVQLQESGGGLVQAGGSLRLSCAASGSIAHYIFMGWYRQAPGKEREFVAGIGYGGTTNYADSVKGRFTISRDNAKNTVYLQMNSLKPEDTAMYYCAAREATEFYLYYWGQGTQVTVSS,low polyreactivity
21,QVQLVESGVGLVQAGGSLRLSCAASGSIFPGYAMGWYRQAPGKEMELVAGITWSDARTYYADSVKVRFTISRDNAKNTVYLQMNSLKPEDTAVYYCAADYYYYERDYWGQGTQVTVSS,low polyreactivity
